The text below walks through data of article PMC3542976.

Like-named read-outs stand apart in the source and are kept apart here.

In one series the target is PKR K296R full length (UniProt P19525 1-551, K296R). Kind of series: EMSA. On the technique in general: A gel shift assay detects complexes by their altered migration in electrophoresis.
Series [1] addresses T1, p20 (dsRBD of PKR) (UniProt P19525 1-184). Briefly: SAXS.
In series [2] the target is T1, p20 (dsRBD of PKR). Kind of series: SAXS. This is another data set of the same source.

PKR K296R full length, sequence (P19525 whole entry K296R): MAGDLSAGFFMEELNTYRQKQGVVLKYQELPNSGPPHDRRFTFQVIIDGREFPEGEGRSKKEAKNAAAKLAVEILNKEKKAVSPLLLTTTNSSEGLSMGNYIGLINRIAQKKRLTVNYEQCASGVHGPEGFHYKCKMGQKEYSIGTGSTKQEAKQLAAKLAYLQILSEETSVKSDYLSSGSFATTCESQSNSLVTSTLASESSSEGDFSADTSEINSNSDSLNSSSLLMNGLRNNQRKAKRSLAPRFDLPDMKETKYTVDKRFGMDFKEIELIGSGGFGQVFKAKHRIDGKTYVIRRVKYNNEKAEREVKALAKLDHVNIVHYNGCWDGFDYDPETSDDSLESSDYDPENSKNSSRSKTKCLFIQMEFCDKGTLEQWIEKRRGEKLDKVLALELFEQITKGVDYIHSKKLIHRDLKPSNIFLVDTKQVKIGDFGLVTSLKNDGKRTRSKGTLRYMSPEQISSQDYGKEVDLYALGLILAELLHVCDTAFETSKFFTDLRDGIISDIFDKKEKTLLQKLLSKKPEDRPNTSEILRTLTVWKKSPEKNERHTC
T1 sequence (P19525 1-184): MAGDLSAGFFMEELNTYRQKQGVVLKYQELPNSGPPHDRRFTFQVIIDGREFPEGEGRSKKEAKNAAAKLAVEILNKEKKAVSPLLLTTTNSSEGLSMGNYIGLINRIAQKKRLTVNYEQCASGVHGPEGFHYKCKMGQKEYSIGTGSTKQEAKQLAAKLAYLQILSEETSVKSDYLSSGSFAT

B1: r(TSA3)/drd(BS) A3-bulged chimeric duplex (mixed)
RNA: GGGAGAGGCAAGUCGUUCGGUCGCGUUCGCAAAUGUCGUCGCGUCUUGUAUGCCACUGUACCC
DNA: GGGTACAGTGGCATACAAGACGCGACGACAGCGAACGCGACCGAACGACTTGCCTCTCCC
modifications: strand 2 is DNA22-RNA16-DNA22 (RNA at 23-38)
Take B1: the binding result with PKR K296R full length and with p20 (dsRBD of PKR) [1] was “binds” each time.

B2: r(TSA6)/drd(BS) A6-bulged chimeric duplex (mixed)
RNA: GGGAGAGGCAAGUCGUUCGGUCGCGUUCGCAAAAAAUGUCGUCGCGUCUUGUAUGCCACUGUACCC
DNA: B1 DNA
modifications: strand 2 is DNA22-RNA16-DNA22 (RNA at 23-38)
Regarding B2, the binding result with PKR K296R full length and with p20 (dsRBD of PKR) [2] was “binds” each time.
